Assays:
eFSHR-N199Q (equine) = eFSHR-N199Q (equine) (UniProt P47799)
eFSHR-N268Q (equine) = eFSHR-N268Q (equine) (UniProt P47799)
[1] = biological target: equine follicle-stimulating hormone receptor wild type (eFSHR-wt) (equine) (UniProt P47799)
eFSHR-N191Q (equine) = eFSHR-N191Q (equine) (UniProt P47799)
eFSHR-N293Q (equine) = eFSHR-N293Q (equine) (UniProt P47799)
Chain of eFSHR-N293Q (equine) (P47799 18-694 N293Q): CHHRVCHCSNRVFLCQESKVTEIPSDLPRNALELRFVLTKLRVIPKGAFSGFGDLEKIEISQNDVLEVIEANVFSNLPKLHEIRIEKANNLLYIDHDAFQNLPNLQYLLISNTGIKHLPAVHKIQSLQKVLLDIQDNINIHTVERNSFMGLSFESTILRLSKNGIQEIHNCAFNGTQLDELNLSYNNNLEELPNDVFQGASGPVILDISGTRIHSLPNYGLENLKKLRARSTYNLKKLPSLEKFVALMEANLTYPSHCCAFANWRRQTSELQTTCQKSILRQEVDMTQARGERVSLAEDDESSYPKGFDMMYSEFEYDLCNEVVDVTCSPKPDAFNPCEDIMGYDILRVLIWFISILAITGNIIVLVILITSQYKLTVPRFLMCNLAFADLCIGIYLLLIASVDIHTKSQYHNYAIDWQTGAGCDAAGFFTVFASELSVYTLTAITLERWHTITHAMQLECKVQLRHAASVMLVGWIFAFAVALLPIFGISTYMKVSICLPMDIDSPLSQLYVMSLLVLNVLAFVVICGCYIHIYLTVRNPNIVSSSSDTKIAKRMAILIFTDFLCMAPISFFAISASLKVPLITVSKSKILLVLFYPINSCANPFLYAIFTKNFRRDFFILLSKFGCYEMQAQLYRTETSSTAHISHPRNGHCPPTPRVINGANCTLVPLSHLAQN

Chain of Human FSH (hFSH) (P01215 25-116): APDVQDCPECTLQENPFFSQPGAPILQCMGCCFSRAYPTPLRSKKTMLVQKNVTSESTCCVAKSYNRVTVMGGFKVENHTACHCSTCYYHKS
Chain of Human FSH (hFSH) (P01225 19-129): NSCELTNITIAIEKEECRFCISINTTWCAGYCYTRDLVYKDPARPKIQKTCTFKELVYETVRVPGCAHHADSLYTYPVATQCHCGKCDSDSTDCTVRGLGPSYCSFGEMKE
Chain of eFSHR-N268Q (equine) (P47799 18-694 N268Q): as the sequence (P47799 18-694 N293Q) above, with N251Q, Q276N counted along it
Chain of eFSHR-N199Q (equine) (P47799 18-694 N199Q): as the sequence (P47799 18-694 N293Q) above, with N182Q, Q276N counted along it
Chain of eFSHR-N191Q (equine) (P47799 18-694 N191Q): as the sequence (P47799 18-694 N293Q) above, with N174Q, Q276N counted along it
Chain of equine follicle-stimulating hormone receptor wild type (eFSHR-wt) (equine) (P47799 18-694): as the sequence (P47799 18-694 N293Q) above, with Q276N counted along it

Human FSH (hFSH) (from UniProt P01215 25-116; P01225 19-129) (ligand)
EC50 of hFSH-stimulated cAMP response (HTRF cAMP assay), CHO-K1 cells expressing the receptor, 30 min at room temperature (eFSHR-N199Q (equine)): 2.21 µg/mL | EC50 of hFSH-stimulated cAMP response (HTRF cAMP assay), CHO-K1 cells expressing the receptor, 30 min at room temperature (eFSHR-N268Q (equine)): 0.806 µg/mL | EC50 of hFSH-stimulated cAMP response (HTRF cAMP assay), CHO-K1 cells expressing the receptor, 30 min at room temperature [1]: 0.99 µg/mL | EC50 of hFSH-stimulated cAMP response (HTRF cAMP assay), CHO-K1 cells expressing the receptor, 30 min at room temperature (eFSHR-N191Q (equine)): 2.11 µg/mL | EC50 of hFSH-stimulated cAMP response (HTRF cAMP assay), CHO-K1 cells expressing the receptor, 30 min at room temperature (eFSHR-N293Q (equine)): 1.24 µg/mL

Source: article PMC11940890
